From patent publication US20250051464A1 (IMMUNOME, published 2025)
Positions count from the first letter of the chain named. Values belong to the binder of their own block, whether it stands above or below them.

Experiments:
[1] = biological target: T1, human EphA2 (ephrin receptor A2), on cells (human, UniProt P29317 24-976); experiment: flow cytometry binding on A549 cells, MedFI
T1 construct: Used for HEK293 transfectants, A549 and other human tumor cell lines
Method: (§1) Surface binding of the antibodies to in vitro grown cell lines was assessed by flow cytometry. Tumor cells were detached from their culture plate using Versene and counted. Cells were staining in BSA-containing buffer with primary antibody for 30 minutes at 4° C. with shaking. Following, cells were washed and stained with secondary PE-labeled antibody for 30 minutes at 4° C. with shaking. Before analysis on an Intellicyt iQue3 scanner, cells were counterstained with DAPI. MedFI values from live, single cells was expressed as fold over isotype control.

[2] = biological target: T1, human EphA2 (ephrin receptor A2), on …; experiment: flow cytometry binding on A549 cells
Method: as §1

[3] = biological target: T2, hEphA2-clv395-534-Fc (human, UniProt P29317 395-534); experiment: SPR Biacore, 25 C, EphA2-Fc captured by anti-human Fc, Fab as analyte, 1:1 Langmuir
T2 construct: Recombinant fragment representing a cleavage form
Method: (§2) The hEphA2-Fc fusions were captured with an anti-human Fc immobilized to a CM5 chip. Biacore® assays were conducted at 25° C. using HBS-EP+ buffer (0.01 M HEPES pH 7.4, 0.15 M NaCl, 3 mM EDTA, 0.005% v/v Surfactant P20). Data was double-reference subtracted and data was analyzed using 1:1 Langmuir binding model and steady-state model in Biacore Evaluation software.
(§3) Binding to hEphA2-ECD-Fc tested using 100, 300, and 900 nM analyte. Binding to all other ligands tested using 33.3, 100, and 300 nM analyte.

[4] = biological target: T3, hEphA2-FN12-(327-534)-Fc (human, UniProt P29317 327-534); experiment: as above
T3 construct: Captured by anti-human Fc on a CM5 chip; also called FN1-FN2 domains of EphA2 fused to human Fc
Method: as §2, §3

[5] = biological target: T4, hEphA2-clv385-534-Fc (human, UniProt P29317 385-534); experiment: as above
T4 construct: Recombinant fragment representing a cleavage form
Method: as §2, §3

[6] = biological target: T5, hEphA2-clv432-534-Fc (human, UniProt P29317 432-534); experiment: as above
T5 construct: Recombinant fragment representing a cleavage form
Method: as §2, §3

[7] = biological target: T6, hEphA2-clv435-534-Fc (human, UniProt P29317 435-534); experiment: as above
T6 construct: Recombinant fragment representing a cleavage form
Method: as §2, §3

[8] = biological target: T7, hEphA2-FN2-(437-534)-Fc (human, UniProt P29317 437-534); experiment: as above
T7 construct: Captured by anti-human Fc on a CM5 chip; also called FN2 domain of EphA2 fused to human Fc
Method: as §2, §3

[9] = biological target: T1, human EphA2 (ephrin receptor A2), on …; experiment: flow cytometry on A549 cells
Method: as §1

[10] = biological target: T1, human EphA2 (ephrin receptor A2), on …; experiment: flow cytometry on A549 cells, EC50 column
[11] = biological target: T8, FcGR1 (human, UniProt P12314 16-374); experiment: flow cytometry, 6,000 human membrane proteins expressed on the surface of HEK293 cells
T8 construct: whole, on cells; An Fc receptor

[12] = biological target: T9, mouse EphA2 on mouse tumor cells (CT26, EMT6, MC38, RENCA) (mouse, UniProt Q03145 26-977); experiment: flow cytometry, surface binding on CT26 cells (in vitro)
T9 construct: whole, on cells
Method: as §1

[13] = biological target: T10, EphA4_ECD (aa 23-546), full ECD, displayed on yeast (human, UniProt P54764 23-546); experiment: yeast surface display, flow cytometry titration of AB-008873
T10 construct: also called EphA4 full ECD; not shown: Aga2 fusion partner followed by an internal HA tag; C-terminal Myc tag
Method: Yeast cells were cultured in SDCAA (Teknova, S0543) and induced with SGCAA (Teknova, 50542). Cells were stained with pairs of primary and secondary antibodies. […] Chicken IgY anti-cMyc (Life technologies A21281) and Goat anti Chicken IgY FITC (Life technologies A11039) were used to assess expression levels. The analysis was run on the iQue3 flow cytometer. […] The FN2 domain of EphA2 alone is sufficient to mediate binding and expresses at high levels. […] FIG. 6. […] FN2 domain alone also has high relative expression. […] Swapping the FN1 domain from EphA4 into EphA2 enables binding of the epitope (diamond). Binding is lost when the FN2 domain from EphA4 is swapped into EphA2.

[14] = biological target: EphA4 (homologous receptor, screening at Integral Molecular) (UniProt P54764 20-986, limits assumed); experiment: screening at Integral Molecular
Chain of EphA4 (homologous receptor, screening at Integral Molecular) (P54764 20-986 limits assumed): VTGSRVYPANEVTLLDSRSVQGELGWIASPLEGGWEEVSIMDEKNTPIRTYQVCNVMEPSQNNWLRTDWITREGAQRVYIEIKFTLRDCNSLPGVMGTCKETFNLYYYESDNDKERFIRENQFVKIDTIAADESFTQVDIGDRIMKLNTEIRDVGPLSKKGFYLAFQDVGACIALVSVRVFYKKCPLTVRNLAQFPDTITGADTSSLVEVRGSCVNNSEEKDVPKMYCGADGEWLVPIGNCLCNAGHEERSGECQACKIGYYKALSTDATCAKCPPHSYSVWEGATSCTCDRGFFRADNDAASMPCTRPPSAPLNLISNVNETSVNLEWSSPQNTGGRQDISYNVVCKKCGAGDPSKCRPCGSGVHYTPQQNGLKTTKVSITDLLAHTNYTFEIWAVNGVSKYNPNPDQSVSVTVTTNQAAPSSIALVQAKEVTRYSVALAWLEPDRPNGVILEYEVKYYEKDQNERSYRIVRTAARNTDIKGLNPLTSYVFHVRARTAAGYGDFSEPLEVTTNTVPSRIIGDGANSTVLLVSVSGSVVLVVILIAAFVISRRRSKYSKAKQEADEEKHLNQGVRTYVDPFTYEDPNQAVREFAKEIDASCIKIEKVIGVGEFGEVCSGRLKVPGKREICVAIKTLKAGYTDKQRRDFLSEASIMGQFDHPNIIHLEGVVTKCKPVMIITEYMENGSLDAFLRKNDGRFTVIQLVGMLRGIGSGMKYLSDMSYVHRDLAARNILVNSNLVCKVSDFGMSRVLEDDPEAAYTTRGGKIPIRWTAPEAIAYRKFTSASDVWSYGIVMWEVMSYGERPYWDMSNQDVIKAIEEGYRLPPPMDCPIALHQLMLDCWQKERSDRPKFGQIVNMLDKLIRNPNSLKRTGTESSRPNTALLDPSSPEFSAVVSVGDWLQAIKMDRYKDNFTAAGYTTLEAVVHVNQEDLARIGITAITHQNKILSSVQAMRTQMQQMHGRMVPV

T5 sequence (P29317 432-534): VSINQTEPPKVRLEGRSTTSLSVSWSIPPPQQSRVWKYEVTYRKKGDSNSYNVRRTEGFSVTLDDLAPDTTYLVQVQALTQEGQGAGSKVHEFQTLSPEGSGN
T3 sequence (P29317 327-534): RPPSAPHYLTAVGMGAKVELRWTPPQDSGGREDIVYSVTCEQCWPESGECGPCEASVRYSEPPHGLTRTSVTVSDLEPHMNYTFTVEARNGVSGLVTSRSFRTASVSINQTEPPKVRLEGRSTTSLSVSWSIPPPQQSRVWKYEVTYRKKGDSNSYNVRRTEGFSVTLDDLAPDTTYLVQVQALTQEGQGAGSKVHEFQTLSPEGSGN
T6 sequence (P29317 435-534): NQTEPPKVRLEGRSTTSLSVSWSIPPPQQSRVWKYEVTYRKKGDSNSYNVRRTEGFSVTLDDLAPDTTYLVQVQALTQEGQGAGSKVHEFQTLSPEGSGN
T1 sequence (P29317 24-976 limits assumed): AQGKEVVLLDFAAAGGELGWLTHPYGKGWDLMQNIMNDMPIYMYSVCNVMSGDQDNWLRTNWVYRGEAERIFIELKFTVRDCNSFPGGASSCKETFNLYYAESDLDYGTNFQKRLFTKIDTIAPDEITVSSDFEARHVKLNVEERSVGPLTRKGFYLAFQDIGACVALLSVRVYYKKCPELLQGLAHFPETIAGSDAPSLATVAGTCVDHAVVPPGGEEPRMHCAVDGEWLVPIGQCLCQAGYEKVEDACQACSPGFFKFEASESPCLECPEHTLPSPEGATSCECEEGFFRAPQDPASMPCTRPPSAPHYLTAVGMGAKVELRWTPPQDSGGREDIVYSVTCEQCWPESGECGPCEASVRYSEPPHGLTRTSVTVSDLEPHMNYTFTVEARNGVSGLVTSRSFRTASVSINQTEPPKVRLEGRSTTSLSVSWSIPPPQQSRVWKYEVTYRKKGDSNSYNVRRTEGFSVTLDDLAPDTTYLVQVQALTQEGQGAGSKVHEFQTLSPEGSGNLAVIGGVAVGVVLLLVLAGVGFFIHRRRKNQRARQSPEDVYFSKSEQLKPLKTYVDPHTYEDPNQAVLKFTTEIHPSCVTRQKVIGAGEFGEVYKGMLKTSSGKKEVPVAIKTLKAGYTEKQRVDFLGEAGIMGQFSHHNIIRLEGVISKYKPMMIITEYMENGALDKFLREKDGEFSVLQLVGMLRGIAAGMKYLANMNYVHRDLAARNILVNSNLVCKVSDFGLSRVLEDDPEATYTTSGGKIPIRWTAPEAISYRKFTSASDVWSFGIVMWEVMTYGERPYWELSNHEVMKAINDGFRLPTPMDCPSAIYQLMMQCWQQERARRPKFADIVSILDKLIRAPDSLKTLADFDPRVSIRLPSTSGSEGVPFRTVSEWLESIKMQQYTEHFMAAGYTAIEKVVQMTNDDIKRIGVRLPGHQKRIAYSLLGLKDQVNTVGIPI
T7 sequence (P29317 437-534): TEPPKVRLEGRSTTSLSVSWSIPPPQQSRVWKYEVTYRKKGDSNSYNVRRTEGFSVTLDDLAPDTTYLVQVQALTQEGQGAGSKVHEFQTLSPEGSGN
T4 sequence (P29317 385-534): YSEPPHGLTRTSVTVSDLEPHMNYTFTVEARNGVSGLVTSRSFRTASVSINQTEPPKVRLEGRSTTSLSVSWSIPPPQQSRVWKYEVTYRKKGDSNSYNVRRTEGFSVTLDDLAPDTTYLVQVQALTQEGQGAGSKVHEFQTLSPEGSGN
T2 sequence (P29317 395-534): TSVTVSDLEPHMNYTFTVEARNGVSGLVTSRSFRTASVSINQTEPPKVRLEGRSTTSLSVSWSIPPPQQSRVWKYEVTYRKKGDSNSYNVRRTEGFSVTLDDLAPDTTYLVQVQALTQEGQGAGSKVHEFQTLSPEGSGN
T9 sequence (Q03145 26-977): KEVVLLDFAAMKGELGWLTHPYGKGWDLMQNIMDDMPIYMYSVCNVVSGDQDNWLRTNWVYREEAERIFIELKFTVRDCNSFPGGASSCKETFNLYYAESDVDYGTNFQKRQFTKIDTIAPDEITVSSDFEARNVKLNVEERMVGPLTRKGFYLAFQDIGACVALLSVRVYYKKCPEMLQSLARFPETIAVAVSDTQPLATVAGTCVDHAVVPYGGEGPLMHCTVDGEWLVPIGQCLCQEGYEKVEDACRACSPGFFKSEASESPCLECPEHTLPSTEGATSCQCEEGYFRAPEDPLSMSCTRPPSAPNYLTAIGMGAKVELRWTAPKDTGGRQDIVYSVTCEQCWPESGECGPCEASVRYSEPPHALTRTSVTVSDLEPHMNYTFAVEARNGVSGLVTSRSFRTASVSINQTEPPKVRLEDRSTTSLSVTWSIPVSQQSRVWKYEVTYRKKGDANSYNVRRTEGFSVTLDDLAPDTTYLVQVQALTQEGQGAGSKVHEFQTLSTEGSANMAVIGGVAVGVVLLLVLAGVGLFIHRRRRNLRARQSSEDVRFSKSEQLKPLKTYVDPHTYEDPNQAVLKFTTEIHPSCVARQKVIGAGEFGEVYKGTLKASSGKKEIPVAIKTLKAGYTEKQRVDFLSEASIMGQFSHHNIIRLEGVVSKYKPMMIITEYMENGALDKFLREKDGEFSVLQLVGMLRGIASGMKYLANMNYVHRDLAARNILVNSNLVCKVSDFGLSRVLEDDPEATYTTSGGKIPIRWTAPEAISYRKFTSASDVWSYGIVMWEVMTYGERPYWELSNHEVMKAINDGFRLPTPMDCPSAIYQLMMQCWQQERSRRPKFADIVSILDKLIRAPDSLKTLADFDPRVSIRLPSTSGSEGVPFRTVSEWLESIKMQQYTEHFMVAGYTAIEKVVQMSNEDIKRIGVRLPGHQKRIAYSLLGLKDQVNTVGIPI
T10 sequence (P54764 23-546): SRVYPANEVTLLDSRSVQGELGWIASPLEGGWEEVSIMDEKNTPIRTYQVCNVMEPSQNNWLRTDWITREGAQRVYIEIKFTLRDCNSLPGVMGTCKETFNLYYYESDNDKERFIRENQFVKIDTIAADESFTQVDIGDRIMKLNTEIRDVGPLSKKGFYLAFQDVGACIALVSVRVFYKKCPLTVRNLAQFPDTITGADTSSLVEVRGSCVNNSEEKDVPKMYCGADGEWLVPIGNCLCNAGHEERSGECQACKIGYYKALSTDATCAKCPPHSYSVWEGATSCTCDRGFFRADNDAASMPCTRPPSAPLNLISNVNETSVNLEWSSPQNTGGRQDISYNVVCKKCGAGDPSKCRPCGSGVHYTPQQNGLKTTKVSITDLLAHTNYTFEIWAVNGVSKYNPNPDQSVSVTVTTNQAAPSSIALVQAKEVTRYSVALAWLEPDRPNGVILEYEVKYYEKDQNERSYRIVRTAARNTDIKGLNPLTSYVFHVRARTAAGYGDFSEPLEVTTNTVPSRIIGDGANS
T8 sequence (P12314 16-374): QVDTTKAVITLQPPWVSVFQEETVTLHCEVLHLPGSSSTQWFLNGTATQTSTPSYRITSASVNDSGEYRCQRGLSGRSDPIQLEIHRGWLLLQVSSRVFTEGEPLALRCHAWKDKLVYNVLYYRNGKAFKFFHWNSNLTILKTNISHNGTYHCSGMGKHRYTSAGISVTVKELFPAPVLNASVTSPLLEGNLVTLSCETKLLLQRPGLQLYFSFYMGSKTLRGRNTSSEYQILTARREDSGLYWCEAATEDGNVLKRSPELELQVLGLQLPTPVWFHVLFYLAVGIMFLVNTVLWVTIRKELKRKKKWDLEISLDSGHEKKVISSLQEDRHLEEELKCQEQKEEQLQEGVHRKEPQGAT

EC50 (read off the curve) [1]: ~20 nM
Flow Delta activity (MedFI) [2]: 231000 MedFI
B1: AB-009806 (antibody, mouse IgG2a, V domains shown)
VH: QVQLQQWGAGLLKPSETLSLTCAVYGGSFSDYYWSWIRQPPGKGLEWIGEINHSGSTNYNPSLKSRVTISVDPSKNQFSLKLTSVTAADTAVYYCAKPFRPHCTNGVCYSGDAFDIWGQGTMVTVSS
VL: SYVLTQPPSVSVAPGQTARITCGGNNIGTKNVHWYQQKPGQAPVLVVYDDSDRPSGIPEQFSGSNSGNTATLTISRVEAGDEADYYCQVWDSSSDHLVFGGGTKLTVL

Kd [3]: 12 nM
koff [3]: 0.07 s⁻¹
kon [3]: 5.72e+06 M⁻¹ s⁻¹
Kd [4]: 8.6 nM
koff [4]: 0.043 s⁻¹
kon [4]: 5e+06 M⁻¹ s⁻¹
Kd [5]: 12 nM
koff [5]: 0.072 s⁻¹
kon [5]: 6.05e+06 M⁻¹ s⁻¹
Kd [6]: 9.6 nM
koff [6]: 0.075 s⁻¹
kon [6]: 7.78e+06 M⁻¹ s⁻¹
Kd [7]: 9.3 nM
koff [7]: 0.078 s⁻¹
kon [7]: 8.42e+06 M⁻¹ s⁻¹
Kd [8]: 8.6 nM
koff [8]: 0.085 s⁻¹
kon [8]: 1e+07 M⁻¹ s⁻¹
B2: AB-010699 human Fab fragment (Fab, V domains shown)
VH: QVQLQQWGAGLLKPSETLSLTCAVYGGSFSGYYWSWIRQPPGKGLEWIGEINHRGSINYNNYNPSLKSRVTISVDTSKNQFSLKLSSVTAADTAVYYCAKPLRPHCINGVCYSGDAFDIWGQGTMVTVAS
VL: B1 VL with T29Y, Q60R, S92H, L97V
notes: Human Fab fragment

Delta (flow) [9]: 0
binding result [10]: no binding
B3: AB-009817 (antibody, mouse IgG2a, V domains shown)
VH: B2 VH with G31D, I51V, T76P, S86T, I107T, G109A
VL: B1 VL with T29S

binding result [11]: binds
fold over isotype control (MedFI) [12]: 16 fold
binding result [13]: no binding (tested: about 300 nM)
binding result [14]: no binding
B4: AB-008873 (mouse IgG2a format) (antibody)
heavy: QVQLQQWGAGLLKPSETLSLTCAVYGGSFSDYYWSWIRQPPGKGLEWIGEVNHRGSINYNNYNPSLKSRVTISVDPSKNQFSLKLTSVTAADTAVYYCAKPLRPHCTNGVCYSGDAFDIWGQGTMVTVASAKTTAPSVYPLAPVCGDTTGSSVTLGCLVKGYFPEPVTLTWNSGSLSSGVHTFPAVLQSDLYTLSSSVTVTSSTWPSQSITCNVAHPASSTKVDKKIEPRGPTIKPCPPCKCPAPNLLGGPSVFIFPPKIKDVLMISLSPIVTCVVVDVSEDDPDVQISWFVNNVEVHTAQTQTHREDYNSTLRVVSALPIQHQDWMSGKEFKCKVNNKDLPAPIERTISKPKGSVRAPQVYVLPPPEEEMTKKQVTLTCMVTDFMPEDIYVEWTNNGKTELNYKNTEPVLDSDGSYFMYSKLRVEKKNWVERNSYSCSVVHEGLHNHHTTKSFSRTPG
light: SYVLTQPPSVSVAPGQTARITCGGNNIGSKNVHWYQQKPGQAPVLVVYDDSDRPSGIPEQFSGSNSGNTATLTISRVEAGDEADYYCQVWDSSSDHLVFGGGTKLTVLGQPKSSPSVTLFPPSSEELETNKATLVCTITDFYPGVVTVDWKVDGTPVTQGMETTQPSKQSNNKYMASSYLTLTARAWERHSSYSCQVTHEGHTVEKSLSRADCS
